The results in this text go back to article PMC4784309, “Substrate specificity and function of acetylpolyamine amidohydrolases from Pseudomonas aeruginosa” (BMC Biochemistry, 2016).

Data set [1] concerns CC(=O)NCCCC[C@H](NC(=O)OC(C)(C)C)C(=O)Nc1ccc2c(C)cc(=O)oc2c1. Kind of data set: purified protein. The conditions noted are these: pH 8, 30 °C, 20 mM Tris-HCl, 50 mM NaCl.
Data set [2] concerns Cc1cc(=O)oc2cc(NC(=O)[C@H](CCCCNC(=O)C(F)(F)F)NC(=O)OC(C)(C)C)ccc12. Kind of data set: purified protein. The note with it: pH 8, 30 °C, 20 mM Tris-HCl, 50 mM NaCl.
Substrate in data set [3]: CC(=O)NCCCCCN
Put plainly: diamine oxidase coupled colorimetric assay. The format is biochemical, Pseudomonas aeruginosa. The note with it: pH 7.4, 21 °C, 100 mM HEPES. An excerpt: (§1) diamine oxidase coupled colorimetric assay on PA0321

Substrate in data set [4]: CC(=O)NCCCCN
Kind of data set: diamine oxidase coupled colorimetric assay. It counts as biochemical, Pseudomonas aeruginosa. The note with it: pH 7.4, 21 °C, 100 mM HEPES.
Text: as §1

Substrate in the data set “purified protein”: Cc1cc(=O)oc2cc(NC(=O)[C@H](CCCCNC(=O)C(F)(F)F)NC(=O)OC(C)(C)C)ccc12
Kind of data set: purified protein. The conditions noted are these: pH 8, 30 °C, 20 mM Tris-HCl, 50 mM NaCl. This is another data set of the same source.

Substrate in data set [5]: CC(=O)NCCCCCN
Kind of data set: diamine oxidase coupled colorimetric assay. It counts as biochemical, Pseudomonas aeruginosa. The note with it: pH 7.4, 21 °C, 100 mM HEPES. The text has this:
(§2) diamine oxidase coupled colorimetric assay on PA1409
This is another data set of the same source.

Substrate in data set [6]: CC(=O)NCCCCN
Kind of data set: diamine oxidase coupled colorimetric assay. It counts as biochemical, Pseudomonas aeruginosa. The conditions noted are these: pH 7.4, 21 °C, 100 mM HEPES.
Text: as §2
This is another data set of the same source.

Regarding HDAH (Alcaligenaceae bacterium FB188), in data set [1], the Km (in general, the substrate concentration at which the rate is half of its maximum) turned out to be 26 ± 4 µM and the maximal velocity (Vmax) (as a rule, the top rate of the reaction or transport when substrate is in excess) was 0.0258 µmol/min/mg. Further, in data set [2], the Michaelis constant (Km) worked out at 7.2 ± 1.1 µM and the Vmax turned out to be 0.0138 µmol/min/mg.
On to PA0321 (Pseudomonas aeruginosa PAO1), for which the Michaelis-Menten constant (Km) in data set [1] was 22 ± 10 µM.
With PA1409 (Pseudomonas aeruginosa PAO1), the Km in data set [1] is 223 ± 12 µM.
As for PA3774 (Pseudomonas aeruginosa PAO1), the Michaelis-Menten constant (Km) in data set [1] was found to be 95 ± 7 µM.

B1: PA0321 (Pseudomonas aeruginosa PAO1) (protein)
chain: MLTIYSDDHRLHHGRHELIGGQFTPCFEKPSRADMVLDRVKAVGLGEVRAPRDFGLEPIRRVHSEGFVRFLQNAWQDWLATGRSHDMLPIAWPTRRLRQTEPDNIDGRLGYYSFDAGAPITAGTWQAITSSANVALSGQSELANGARSVFSLCRPPGHHAAADYMGGYCFFNNAAIAAQAFLDRGAGRVAILDVDYHHGNGTQDIFYDRADVLFTSIHGDPRFEYPYFLGYADEKGNGVGTGYNFNYPLAAGSDWATWSQALQAAIRQIQAYAADALIVSLGVDTFKEDPISQFRLDSPDYLRMGEAIGKLGLATLFVMEGGYAVEEIGINAVNVLQGFEGVHR
notes: recombinant, E. coli expressed, produced as described before [30]
With B1, the Km in data set [3] was determined as 284 ± 39 µM; in data set [4], 411 ± 34 µM; in the data set “purified protein”, 11 ± 1 µM.

B2: PA3774 (Pseudomonas aeruginosa PAO1) (protein)
chain: MTRRTAFFFDELCLWHAAGPHALTLPVGGWVQPPAAAGHAESPETKRRLKSLLDVSGLTARLQLRSAPPASDEDLLRVHPAHYLERFKALSDAGGGSLGQDAPIGPGSYEIARLSAGLAIAALDAVLAGEADNAYSLSRPPGHHCLPDQAMGFCFFANIAVAIEAAKARHGVERVAVLDWDVHHGNGTQAIYYRRDDVLSISLHQDGCFPPGYSGAEDIGEDRGRGFNLNVPLLPGGGHDAYMQAMQRIVLPALERFRPQLIVVASGFDANAVDPLARMQLHSDSFRAMTAMVRDAAERHAGGRLVVVHEGGYSEAYVPFCGLAVIEELSGVRSAVRDPLRDFIELQQPNAAFRDFQRQRLEELAAQFGLCPAQPLQAAR
As for B2, the Km in the data set “purified protein” is 21 ± 2 µM.

B3: PA1409 (Pseudomonas aeruginosa PAO1) (protein)
chain: MLSVYSDDHRLHFGQSELVDGKLQPCFEMPSRADTVLARVKSQNLGEVIAPKDFGREPLLRLHDAAYLDFLQGAWARWTAEGHSGDLVSTTFPGRRLRRDGPIPTALMGELGYYSFDTEAPITAGTWQAIYSSAQVALTAQEHMRQGARSAFALCRPPGHHAGGDFMGGYCFLNNAAIATQAFLDQGARRVAILDVDYHHGNGTQDIFYRRDDVLFASIHGDPRVEYPYFLGYADERGEGAGEGCNHNYPLAHGSGWDLWSAALDDACVRIAGYAPDALVISLGVDTYKEDPISQFRLDSPDYLRMGERIARLGLPTLFIMEGGYAVEAIGINAVNVLQGYEGAAR
notes: as for B1
B3: the Michaelis-Menten constant (Km) was 465 ± 53 µM in data set [5], 503 ± 60 µM in data set [6] and 84 ± 15 µM in the data set “purified protein”.
